One series relates to T1, KPLGSDDSLADY peptide.
T1 sequence: KPLGSDDSLADY

A further series relates to T2, MEK substrate (MEKSBS).
T2 sequence: XDPDHDHTGFLTEYVATRW

In the case of purified MEK, the “phosphorylation in an in vitro kinase assay” value with KPLGSDDSLADY peptide and in the series on MEK substrate (MEKSBS) was “are both phosphorylated in the presence of purified MEK in an in vitro kinase assay” throughout.
